# Measured values: IntAct's records for PubMed 19556541
# B1: Polycystin-2 (Homo sapiens), Q13563-1 (parent)
# chain: MVNSSRVQPQQPGDAKRPPAPRAPDPGRLMAGCAAVGASLAAPGGLCEQRGLEIEMQRIRQAAARDPPAGAAASPSPPLSSCSRQAWSRDNPGFEAEEEEEEVEGEEGGMVVEMDVEWRPGSRRSAASSAVSSVGARSRGLGGYHGAGHPSGRRRRREDQGPPCPSPVGGGDPLHRHLPLEGQPPRVAWAERLVRGLRGLWGTRLMEESSTNREKYLKSVLRELVTYLLFLIVLCILTYGMMSSNVYYYTRMMSQLFLDTPVSKTEKTNFKTLSSMEDFWKFTEGSLLDGLYWKMQPSNQTEADNRSFIFYENLLLGVPRIRQLRVRNGSCSIPQDLRDEIKECYDVYSVSSEDRAPFGPRNGTAWIYTSEKDLNGSSHWGIIATYSGAGYYLDLSRTREETAAQVASLKKNVWLDRGTRATFIDFSVYNANINLFCVVRLLVEFPATGGVIPSWQFQPLKLIRYVTTFDFFLAACEIIFCFFIFYYVVEEILEIRIHKLHYFRSFWNCLDVVIVVLSVVAIGINIYRTSNVEVLLQFLEDQNTFPNFEHLAYWQIQFNNIAAVTVFFVWIKLFKFINFNRTMSQLSTTMSRCAKDLFGFAIMFFIIFLAYAQLAYLVFGTQVDDFSTFQECIFTQFRIILGDINFAEIEEANRVLGPIYFTTFVFFMFFILLNMFLAIINDTYSEVKSDLAQQKAEMELSDLIRKGYHKALVKLKLKKNTVDDISESLRQGGGKLNFDELRQDLKGKGHTDAEIEAIFTKYDQDGDQELTEHEHQQMRDDLEKEREDLDLDHSSLPRPMSSRSFPRSLDDSEEDDDEDSGHSSRRRGSISSGVSYEEFQVLVRRVDRMEHSIGSIVSKIDAVIVKLEIMERAKLKRREVLGRLLDGVAEDERLGRDSEIHREQMERLVREELERWESDDAASQISHGLGTPVGLNGQPRPRSSRPSSSQSTEGMEGAGGNGSSNVHV
# Variants of: B1
# Settings: with pkd1_human PKD1, P98161
# Chain of pkd1_human PKD1, P98161 (P98161 whole entry, looked up): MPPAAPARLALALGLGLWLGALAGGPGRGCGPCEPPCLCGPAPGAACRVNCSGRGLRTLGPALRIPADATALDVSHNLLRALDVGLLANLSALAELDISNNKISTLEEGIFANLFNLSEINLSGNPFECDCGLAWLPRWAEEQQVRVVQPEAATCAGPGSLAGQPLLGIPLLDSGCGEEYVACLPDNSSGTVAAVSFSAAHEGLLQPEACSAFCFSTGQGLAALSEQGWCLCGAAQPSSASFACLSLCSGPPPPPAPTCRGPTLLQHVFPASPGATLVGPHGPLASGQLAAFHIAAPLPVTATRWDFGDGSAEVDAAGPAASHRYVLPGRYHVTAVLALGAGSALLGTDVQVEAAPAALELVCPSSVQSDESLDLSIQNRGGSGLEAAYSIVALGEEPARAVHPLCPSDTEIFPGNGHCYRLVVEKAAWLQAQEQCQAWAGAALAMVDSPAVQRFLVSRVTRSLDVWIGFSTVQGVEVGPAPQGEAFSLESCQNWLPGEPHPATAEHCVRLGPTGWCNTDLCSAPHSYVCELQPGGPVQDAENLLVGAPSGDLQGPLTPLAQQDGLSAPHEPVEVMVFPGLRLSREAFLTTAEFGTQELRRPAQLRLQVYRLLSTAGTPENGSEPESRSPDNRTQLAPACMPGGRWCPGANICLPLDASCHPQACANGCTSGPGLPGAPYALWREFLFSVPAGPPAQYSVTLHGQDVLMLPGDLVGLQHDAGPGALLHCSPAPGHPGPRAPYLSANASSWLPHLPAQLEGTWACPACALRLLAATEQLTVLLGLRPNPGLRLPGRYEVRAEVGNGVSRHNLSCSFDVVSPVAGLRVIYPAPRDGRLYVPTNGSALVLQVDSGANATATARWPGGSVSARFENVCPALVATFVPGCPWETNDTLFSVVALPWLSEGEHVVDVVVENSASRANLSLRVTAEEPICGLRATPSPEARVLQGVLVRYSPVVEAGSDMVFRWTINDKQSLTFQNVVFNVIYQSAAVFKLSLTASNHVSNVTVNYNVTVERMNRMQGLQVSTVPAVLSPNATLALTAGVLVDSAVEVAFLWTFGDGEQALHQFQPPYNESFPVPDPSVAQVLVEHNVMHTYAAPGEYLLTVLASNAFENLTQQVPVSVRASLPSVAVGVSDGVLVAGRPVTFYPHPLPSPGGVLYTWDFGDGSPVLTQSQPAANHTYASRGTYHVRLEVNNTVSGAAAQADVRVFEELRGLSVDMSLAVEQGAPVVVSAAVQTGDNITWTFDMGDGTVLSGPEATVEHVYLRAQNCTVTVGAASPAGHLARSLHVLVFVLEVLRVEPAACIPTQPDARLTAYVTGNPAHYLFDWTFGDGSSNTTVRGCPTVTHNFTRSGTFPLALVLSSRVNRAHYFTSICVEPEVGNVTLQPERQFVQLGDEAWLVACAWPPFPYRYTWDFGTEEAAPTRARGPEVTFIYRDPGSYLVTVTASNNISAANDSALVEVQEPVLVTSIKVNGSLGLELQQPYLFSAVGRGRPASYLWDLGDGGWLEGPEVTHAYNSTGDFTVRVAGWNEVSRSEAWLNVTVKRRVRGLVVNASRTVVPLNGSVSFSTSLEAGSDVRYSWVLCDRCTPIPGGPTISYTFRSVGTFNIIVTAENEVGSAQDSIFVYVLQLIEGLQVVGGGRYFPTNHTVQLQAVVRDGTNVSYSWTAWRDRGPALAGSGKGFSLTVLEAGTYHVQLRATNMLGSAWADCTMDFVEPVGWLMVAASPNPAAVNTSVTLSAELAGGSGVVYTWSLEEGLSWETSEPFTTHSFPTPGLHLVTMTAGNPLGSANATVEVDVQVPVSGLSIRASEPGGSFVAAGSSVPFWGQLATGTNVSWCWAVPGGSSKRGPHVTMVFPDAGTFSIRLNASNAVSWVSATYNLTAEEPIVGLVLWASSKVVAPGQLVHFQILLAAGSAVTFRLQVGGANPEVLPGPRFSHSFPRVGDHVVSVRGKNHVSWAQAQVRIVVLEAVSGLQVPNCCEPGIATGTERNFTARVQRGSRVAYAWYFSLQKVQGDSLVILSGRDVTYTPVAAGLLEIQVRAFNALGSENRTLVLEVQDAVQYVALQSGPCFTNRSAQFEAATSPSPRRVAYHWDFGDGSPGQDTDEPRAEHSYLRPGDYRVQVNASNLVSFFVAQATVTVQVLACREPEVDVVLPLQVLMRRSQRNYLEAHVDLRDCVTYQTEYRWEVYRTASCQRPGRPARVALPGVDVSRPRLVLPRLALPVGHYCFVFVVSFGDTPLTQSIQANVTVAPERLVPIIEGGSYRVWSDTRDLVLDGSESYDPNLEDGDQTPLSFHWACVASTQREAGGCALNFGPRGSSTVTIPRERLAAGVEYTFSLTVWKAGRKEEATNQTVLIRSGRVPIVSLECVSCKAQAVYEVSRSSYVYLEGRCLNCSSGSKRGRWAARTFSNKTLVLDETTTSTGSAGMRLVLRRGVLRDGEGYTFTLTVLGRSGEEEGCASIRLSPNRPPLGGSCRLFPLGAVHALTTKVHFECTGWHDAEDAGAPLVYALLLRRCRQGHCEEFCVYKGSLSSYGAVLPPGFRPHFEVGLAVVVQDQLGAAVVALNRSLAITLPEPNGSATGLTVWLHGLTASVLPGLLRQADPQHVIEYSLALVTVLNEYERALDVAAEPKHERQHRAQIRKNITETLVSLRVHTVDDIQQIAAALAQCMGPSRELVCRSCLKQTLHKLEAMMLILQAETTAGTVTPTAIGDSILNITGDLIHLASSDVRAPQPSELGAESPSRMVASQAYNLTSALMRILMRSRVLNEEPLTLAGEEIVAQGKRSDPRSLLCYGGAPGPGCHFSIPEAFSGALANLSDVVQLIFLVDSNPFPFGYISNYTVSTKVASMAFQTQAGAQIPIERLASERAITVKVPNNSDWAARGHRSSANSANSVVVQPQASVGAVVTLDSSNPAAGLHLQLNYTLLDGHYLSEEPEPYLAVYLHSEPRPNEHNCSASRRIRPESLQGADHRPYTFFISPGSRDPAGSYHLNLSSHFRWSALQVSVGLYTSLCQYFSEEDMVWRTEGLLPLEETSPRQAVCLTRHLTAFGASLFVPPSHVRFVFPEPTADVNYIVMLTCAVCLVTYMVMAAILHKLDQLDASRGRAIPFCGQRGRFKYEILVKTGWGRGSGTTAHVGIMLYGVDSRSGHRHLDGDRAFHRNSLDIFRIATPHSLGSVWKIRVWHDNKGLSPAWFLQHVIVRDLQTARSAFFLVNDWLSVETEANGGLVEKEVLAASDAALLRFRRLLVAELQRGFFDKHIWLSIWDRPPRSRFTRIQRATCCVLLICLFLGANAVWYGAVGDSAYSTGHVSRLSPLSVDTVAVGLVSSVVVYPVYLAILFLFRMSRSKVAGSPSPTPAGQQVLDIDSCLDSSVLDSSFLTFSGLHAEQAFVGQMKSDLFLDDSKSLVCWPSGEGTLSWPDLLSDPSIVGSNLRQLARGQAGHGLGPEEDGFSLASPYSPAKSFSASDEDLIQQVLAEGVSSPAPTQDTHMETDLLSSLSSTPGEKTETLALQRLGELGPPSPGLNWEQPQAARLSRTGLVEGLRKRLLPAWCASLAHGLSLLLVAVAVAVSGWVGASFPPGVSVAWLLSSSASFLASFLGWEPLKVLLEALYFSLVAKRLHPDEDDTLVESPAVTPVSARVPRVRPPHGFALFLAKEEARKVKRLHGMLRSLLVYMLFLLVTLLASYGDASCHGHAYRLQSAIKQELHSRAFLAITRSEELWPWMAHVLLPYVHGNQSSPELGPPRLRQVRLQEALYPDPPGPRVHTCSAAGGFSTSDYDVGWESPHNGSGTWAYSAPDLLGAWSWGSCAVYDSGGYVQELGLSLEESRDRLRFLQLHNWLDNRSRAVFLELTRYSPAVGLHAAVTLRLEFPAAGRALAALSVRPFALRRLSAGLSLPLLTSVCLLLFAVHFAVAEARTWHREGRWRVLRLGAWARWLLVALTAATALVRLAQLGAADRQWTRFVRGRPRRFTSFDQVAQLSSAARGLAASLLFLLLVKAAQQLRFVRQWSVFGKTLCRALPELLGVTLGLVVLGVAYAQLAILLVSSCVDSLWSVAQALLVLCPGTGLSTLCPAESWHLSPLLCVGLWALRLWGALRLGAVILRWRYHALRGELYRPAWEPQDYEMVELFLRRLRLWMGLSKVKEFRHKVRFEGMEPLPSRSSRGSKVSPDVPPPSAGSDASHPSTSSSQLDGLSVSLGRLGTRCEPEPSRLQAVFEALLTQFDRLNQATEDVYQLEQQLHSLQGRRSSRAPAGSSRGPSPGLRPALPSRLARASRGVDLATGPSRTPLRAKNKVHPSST
row,Variant,effect of a mutation on the interaction
1,L842A;V846A;M849A;I860A;V863A;L867A,disrupting interaction strength
